Source: PMC9241285

Molecular target: recombinant human Aβ42 sodium hydroxide (NaOH) salt (human) (UniProt P05067)

Chain of recombinant human apoE4 (P02649 19-317): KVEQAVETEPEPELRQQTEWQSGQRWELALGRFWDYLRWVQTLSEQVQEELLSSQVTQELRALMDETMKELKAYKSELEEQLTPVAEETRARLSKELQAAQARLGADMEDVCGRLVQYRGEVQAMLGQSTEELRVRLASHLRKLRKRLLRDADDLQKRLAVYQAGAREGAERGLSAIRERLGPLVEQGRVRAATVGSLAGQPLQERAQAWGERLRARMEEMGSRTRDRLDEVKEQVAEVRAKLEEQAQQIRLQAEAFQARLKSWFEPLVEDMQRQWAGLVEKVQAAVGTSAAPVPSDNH

recombinant human apoE4 (from UniProt P02649 19-317) (natural protein)
> 30%: reduction of apoE4-catalyzed Aβ42 fibrillization (ThT, HTS assay) by imipramine at 0.25, 2.5 and 25 μM; no effect on Aβ42 alone | reduction of apoE4-catalyzed Aβ42 fibrillization (ThT, HTS assay) by olanzapine at 0.25, 2.5 and 25 μM; no effect on Aβ42 alone | reduction of apoE4-catalyzed Aβ42 fibrillization (ThT, HTS assay) by sulfacetamide at 0.25, 2.5 and 25 μM; no effect on Aβ42 alone
